Legend:
TLR4/MD2 [1] = molecular target: T1, TLR4/MD2 (Homo sapiens, UniProt O00206); assay: Immunoprecipitation of peptides on bead-coupled TLR4/MD2, eluates analysed by MALDI-TOF mass spectrometry; type: binding; design: purchased R&D SYSTEMS; conditions: bead-coupled his-tagged rhTLR4/MD2, 1 mM Calcium, 3 h at 4° C.; MALDI-TOF detection; FIG. 3B, 4, 5
Description: Anti-His antibody (5 μL, 0.5 mg/mL, Invivogen) and his-tagged rhTLR4/MD2 (5 μL, 1 mg/mL, carrier free, R&D SYSTEMS) were mixed and coupled to Protein A/G Agarose (50 μl, Pierce, Thermo Scientific). Trypsin digested peptides of S100A9 were added for 3 h at 4° C. in the presence of 1 mM Calcium. After washing of the beads in HBS/1 mM Ca-buffer for three times bound peptidic fragments were eluted by addition of 10 mM TRIS/2 mM EDTA-buffer and analysed by ESI-QIT- and MALDI-TOF-mass spectrometry. Identical experiments were performed to analyze the binding of the chemical synthesized peptides of S100A9 (aa63-79), S100A8 (aa55-71) and the corresponding control peptides aa63-79 AS and aa55-71 A3.

his-tagged rhTLR4/MD2 [2] = molecular target: T2, his-tagged rhTLR4/MD2 (human, UniProt O00206 24-631; Q9Y6Y9 19-160); assay: modified S100A9 ELISA, TLR4/MD2 coated on the plate, 2 ug/ml S100A9 protein, absorbance at 450 nm (FIG. 6C)
T2 construct: Bought recombinant human complex (carrier free, R&D SYSTEMS), his-tagged; In the pull-down it was captured by anti-His antibody on Protein A/G agarose; in the ELISA it was coated on the plate; also called TLR4/MD2 complex; TRLR4/MD2
T2 sequence (O00206 24-631 limits assumed, chain 1 of 2): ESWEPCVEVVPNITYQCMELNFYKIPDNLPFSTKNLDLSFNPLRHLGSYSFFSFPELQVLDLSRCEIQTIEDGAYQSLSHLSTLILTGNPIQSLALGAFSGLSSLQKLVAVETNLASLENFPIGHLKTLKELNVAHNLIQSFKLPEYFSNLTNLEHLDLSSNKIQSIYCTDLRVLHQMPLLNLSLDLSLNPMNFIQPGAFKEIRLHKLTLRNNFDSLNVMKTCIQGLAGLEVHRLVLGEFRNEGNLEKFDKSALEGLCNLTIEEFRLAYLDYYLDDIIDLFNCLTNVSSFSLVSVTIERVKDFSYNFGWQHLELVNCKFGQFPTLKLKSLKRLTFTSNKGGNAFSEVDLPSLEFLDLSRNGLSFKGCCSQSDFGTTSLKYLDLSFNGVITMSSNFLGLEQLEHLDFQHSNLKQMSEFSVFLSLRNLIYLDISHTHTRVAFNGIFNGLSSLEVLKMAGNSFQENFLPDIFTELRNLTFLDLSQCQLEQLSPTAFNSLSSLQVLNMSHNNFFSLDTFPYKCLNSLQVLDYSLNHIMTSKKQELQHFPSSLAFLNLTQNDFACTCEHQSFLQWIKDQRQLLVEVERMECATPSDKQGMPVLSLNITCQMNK
T2 sequence (Q9Y6Y9 19-160 limits assumed, chain 2 of 2): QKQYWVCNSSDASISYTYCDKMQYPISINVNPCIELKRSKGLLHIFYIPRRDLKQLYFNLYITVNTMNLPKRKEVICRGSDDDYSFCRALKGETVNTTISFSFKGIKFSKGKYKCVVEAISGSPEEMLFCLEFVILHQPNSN
Description: (§1) Binding of S100A9 proteins to TLR4/MD2 was analysed by a modified S100A9-ELISA. Briefly, TLR4/MD2 was coupled to the wells of a 96-well plate and served as capturing molecule. After blocking of the unspecific binding sites by PBS/5% skim milk powder plates were washed three times. S100A9-wt or mutant S100A9 proteins were added at a concentration of 2 μg/ml each in the presence and absence of 100 μM Calcium and incubated for two hours at room temperature. Unbound S100A9 was removed by washing the plates for three times followed by the addition of a primary anti-S100A9-antibody (1 μg/ml, polyclonal, rabbit). After a washing step the secondary anti-rabbit-IgG-antibody coupled to HRP (1 μg/ml from Cell Signalling) was added. TMB was used as substrate for HRP to quantify binding by absorbance readings at 450 nm in an ELISA reader (Anthos Mirkosysteme).

human monocytes = assay: Stimulation of human monocytes, TNFα release quantified by ELISA; type: cell-based; conditions: for effect of mutation on function of the S100A9 homodimer: purified mutant S100A9 proteins, alanine exchange, binding to and activation of TLR4; for activation of monocytes (TNFα released into the culture medium): human monocytes stimulated for four hours, TNFα by ELISA, FIG. 1
Excerpt: Using standard techniques known in the art, the inventors expressed the individual human proteins S100A8 and S100A9 in recombinant form, and purified them. After generating homodimers and heterodimers, they analysed the properties of the complexes. FIG. 1 illustrates the stimulation of human monocytes for four hours with the indicated concentrations of (A) recombinant human S100A8, recombinant human S100A9 or human S100A8/S100A9, and (B) recombinant human S100A8/S100A9, recombinant human S100A8/S100A9 (N69A) or S100A8/S100A9 (E78A). TNFα released into the culture medium was quantified by means of ELISA.
Monocytes were isolated from human buffy coats by Ficoll-Paque and subsequent Percoll density centrifugation (Pharmacia, Freiburg, Germany) Cells were cultured in Teflon bags (Biofolie 25; Heraeus Instruments, Hanau, Germany) using McCoy's 5a medium supplemented with 15% fetal calf serum for 1 day before stimulation. Monocytes were incubated for 4 hours with different dosis of hS100A8, hS100A9, hS100A8/S100A9 or the modified proteins as indicated in the figures and TNF-α concentrations in supernatants were determined by ELISA (OptEIA, BD Biosciences, Germany).
Release of cytokine TNF-α was measured in the culture supernatants by ELISA (OptEIA, BD Biosciences). […]

TLR4/MD2 [3] = molecular target: T1, TLR4/MD2; assay: Binding of S100A9-wt and mutant proteins to TLR4/MD2 (modified S100A9-ELISA); conditions: 2 μg/ml protein, plate-coupled TLR4/MD2, absorbance 450 nm; FIG. 6B, 6C
Description: as §1

his-tagged rhTLR4/MD2 [4] = molecular target: T2, his-tagged rhTLR4/MD2; assay: modified S100A9 ELISA, TLR4/MD2 coated on the plate, 2 ug/ml S100A9 protein, absorbance at 450 nm
Description: as §1

T1 sequence (O00206 24-631 limits assumed): as the sequence (O00206 24-631 limits assumed, chain 1 of 2) above
T1 sequence (Q9Y6Y9 17-160 partner limits assumed): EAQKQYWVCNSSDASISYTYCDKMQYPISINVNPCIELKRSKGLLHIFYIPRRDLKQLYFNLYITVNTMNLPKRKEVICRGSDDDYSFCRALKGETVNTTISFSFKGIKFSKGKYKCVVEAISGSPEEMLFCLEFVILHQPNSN

| Molecule | effect of mutation on function of the S100A9 homodimer (human monocytes) | binding to the receptor compared to non-mutated protein (S100A9 wt) (TLR4/MD2 [3]) | binding result (his-tagged rhTLR4/MD2 [4]) | further results |
| --- | --- | --- | --- | --- |
| 55-71: synthetic peptide, positions 55-71 of human S100A8, complete C-terminal EF hand, FKELDINTDGAVNFQEF |  |  |  | binding to TLR4/MD2 (TLR4/MD2 [1]): able to bind to TLR4/MD2 |
| 63-79: synthetic peptide, positions 63-79 of S100A9, complete C-terminal EF hand, MEDLDTNADKQLSFEEF |  |  |  | binding to TLR4/MD2 (TLR4/MD2 [1]): able to bind to TLR4/MD2 |
| 63-79 A5: control peptide 63-79 of S100A9 with E64A, D65A, K72A, Q73A and E77A exchanged to alanine (MAALDTNADAALSFAEF) [reference compound] |  |  |  | binding to TLR4/MD2 (TLR4/MD2 [1]): no binding could be detected |
| No. 15: tryptic peptide of human S100A9, amino acid positions 73-85 (QLSFEEFIMLMAR, SEQ ID NO: 3) (QLSFEEFIMLMARTTT) |  |  |  | binding to TLR4/MD2 (TLR4/MD2 [1]): specific interaction with TLR4/MD2 |
| S100A9 double mutant with alanine at both D65 and Q73 (ligand, Purified recombinant double mutant of human S100A9, homodimer) MTCKMSQLERNIETIINTFHQYSVKLGHPDTLNQGEFKELVRKDLQNFLKKENKNEKVIEHIMEALDTNADKALSFEEFIMLMARLTWASHEKMHEGDEGPGHHHKPGLGEGTP |  |  |  | binding result (his-tagged rhTLR4/MD2 [2]): binds |
| S100A9 double mutant with alanine at both E64 and D65 (ligand, Purified recombinant double mutant of human S100A9, homodimer) MTCKMSQLERNIETIINTFHQYSVKLGHPDTLNQGEFKELVRKDLQNFLKKENKNEKVIEHIMAALDTNADKQLSFEEFIMLMARLTWASHEKMHEGDEGPGHHHKPGLGEGTP |  |  |  | binding result (his-tagged rhTLR4/MD2 [2]): binds |
| S100A9 double mutant with alanine at both E64 and Q73 (ligand, Purified recombinant double mutant of human S100A9, homodimer) MTCKMSQLERNIETIINTFHQYSVKLGHPDTLNQGEFKELVRKDLQNFLKKENKNEKVIEHIMADLDTNADKALSFEEFIMLMARLTWASHEKMHEGDEGPGHHHKPGLGEGTP |  |  |  | binding result (his-tagged rhTLR4/MD2 [2]): binds |
| S100A9 double mutant with alanine at both Q73 and E77 (ligand, Purified recombinant double mutant of human S100A9, homodimer) MTCKMSQLERNIETIINTFHQYSVKLGHPDTLNQGEFKELVRKDLQNFLKKENKNEKVIEHIMEDLDTNADKALSFAEFIMLMARLTWASHEKMHEGDEGPGHHHKPGLGEGTP |  |  |  | binding result (his-tagged rhTLR4/MD2 [2]): binds |
| S100A9D65A (ligand, Purified recombinant mutant of human S100A9, homodimer; also called S100A9 D65A mutant) MTCKMSQLERNIETIINTFHQYSVKLGHPDTLNQGEFKELVRKDLQNFLKKENKNEKVIEHIMEALDTNADKQLSFEEFIMLMARLTWASHEKMHEGDEGPGHHHKPGLGEGTP | loss of function | weaker binding | binds |  |
| S100A9E64A (ligand, Purified recombinant mutant of human S100A9, homodimer; also called S100A9 E64A mutant) MTCKMSQLERNIETIINTFHQYSVKLGHPDTLNQGEFKELVRKDLQNFLKKENKNEKVIEHIMADLDTNADKQLSFEEFIMLMARLTWASHEKMHEGDEGPGHHHKPGLGEGTP | loss of function | weaker binding | binds |  |
| S100A9E77A (ligand, Purified recombinant mutant of human S100A9, homodimer; also called S100A9 E77A mutant) MTCKMSQLERNIETIINTFHQYSVKLGHPDTLNQGEFKELVRKDLQNFLKKENKNEKVIEHIMEDLDTNADKQLSFAEFIMLMARLTWASHEKMHEGDEGPGHHHKPGLGEGTP | loss of function | weaker binding | binds |  |
| S100A9K72A (ligand, Purified recombinant mutant of human S100A9, homodimer; also called S100A9 K72A mutant) MTCKMSQLERNIETIINTFHQYSVKLGHPDTLNQGEFKELVRKDLQNFLKKENKNEKVIEHIMEDLDTNADAQLSFEEFIMLMARLTWASHEKMHEGDEGPGHHHKPGLGEGTP | hardly any effect | not significantly different from the wild type protein | binds |  |
| S100A9Q73A (ligand, Purified recombinant mutant of human S100A9, homodimer; also called S100A9 Q73A mutant) MTCKMSQLERNIETIINTFHQYSVKLGHPDTLNQGEFKELVRKDLQNFLKKENKNEKVIEHIMEDLDTNADKALSFEEFIMLMARLTWASHEKMHEGDEGPGHHHKPGLGEGTP | loss of function | weaker binding | binds |  |
| S100A9R85A (ligand, Purified recombinant mutant of human S100A9, homodimer; also called S100A9 R85A mutant) MTCKMSQLERNIETIINTFHQYSVKLGHPDTLNQGEFKELVRKDLQNFLKKENKNEKVIEHIMEDLDTNADKQLSFEEFIMLMAALTWASHEKMHEGDEGPGHHHKPGLGEGTP | hardly any effect | not significantly different from the wild type protein | binds |  |
| heterotetrameric complex between S100A8 and S100A9: complex of recombinant human S100A8 and S100A9, heterotetramer in presence of calcium (protein) chain 1: MLTELEKALNSIIDVYHKYSLIKGNFHAVYRDDLKKLLETECPQYIRKKGADVWFKELDINTDGAVNFQEFLILVIKMGVAAHKKSHEESHKE chain 2: MTCKMSQLERNIETIINTFHQYSVKLGHPDTLNQGEFKELVRKDLQNFLKKENKNEKVIEHIMEDLDTNADKQLSFEEFIMLMARLTWASHEKMHEGDEGPGHHHKPGLGEGTP |  |  |  | activation of monocytes (TNFα released into the culture medium) (human monocytes): does not induce an inflammatory response in monocytes; activation of monocytes (TNFα released into the culture medium) (human monocytes; listed as heterotetrameric complex of s100A8 and S100A9): did not show activating properties that would be comparable to the individual components |
| S100A8: recombinant human protein S100A8 (Uniprot P05109), used as homodimer (protein) MLTELEKALNSIIDVYHKYSLIKGNFHAVYRDDLKKLLETECPQYIRKKGADVWFKELDINTDGAVNFQEFLILVIKMGVAAHKKSHEESHKE |  |  |  | activation of monocytes (TNFα released into the culture medium) (human monocytes): induce a particular strong, pro-inflammatory response in monocytes; activation of monocytes (TNFα released into the culture medium) (human monocytes; listed as homodimers of S100A8): induce this response |
| S100A9: recombinant human protein S100A9 (Uniprot P06702), used as homodimer (protein) MTCKMSQLERNIETIINTFHQYSVKLGHPDTLNQGEFKELVRKDLQNFLKKENKNEKVIEHIMEDLDTNADKQLSFEEFIMLMARLTWASHEKMHEGDEGPGHHHKPGLGEGTP |  |  |  | activation of monocytes (TNFα released into the culture medium) (human monocytes): induce a particular strong, pro-inflammatory response in monocytes; activation of monocytes (TNFα released into the culture medium) (human monocytes; listed as homodimers of S100A9): induce this response |

Reference: patent US20150210768A1, “Methods and Compounds for Preventing, Treating and Diagnosing an Inflammatory Condition” (Westfaelische Wilhelms-Universitaet Muenster, priority 2012, published 2015)
